Numbering of substitutions follows the chain as printed.
B1: 1G6 scFv-Fc (Fc fusion)
chain: EIQLQQSGAELVKPGASVKMSCKASGYTFRYYNMHWVKRTPGQGLEWIGLIYPDNGDTSYNQKFKGKATLTADTSSSTAYMQLSSLTSEDSAVYYCARGGLDYWGQGTSLTVSSGGGGSGGGGSGGGGSNIVMTQSHKFMSTSVGDRVSITCKASQDVNTDVAWYQQKPGQSPKLLIYSASYRYTGVPTRFTGSGSGTDFTFTISGVQAEDLADYYCQQHYNTPYTFGGGTKLELKESKYGPPCPPCPAPEAAGGPSVFLFPPKPKDTLMISRTPEVTCVVVDVSQEDPEVQFNWYVDGVEVHNAKTKPREEQFNSTYRVVSVLTVLHQDWLNGKEYKCKVSNKGLPSSIEKTISKAKGQPREPQVYTLPPSQEEMTKNQVSLTCLVKGFYPSDIAVEWESNGQPENNYKTTPPVLDSDGSFFLYSKLTVDKSRWQEGNVFSCSVMHEALHNHYTQKSLSLSLG
B2: 3E3 scFv-Fc (Fc fusion)
chain: QVQLQQPGAVLVKPGASVRMSCKASGYTFPYYNVHWVKRTPGQGLEWIGLIYPDNGDTSYNQKFTGKATLTADTSSSTAYMQLSSLTSEDSAVYYCARGGLDYWGQGTTLTVSAGGGGSGGGGSGGGGSDVQITQSPASLSASVGETVTITCGASENIYGALNWYQRKQGKSPQLLIYGATNLADGMSSRFSGSGSGRQYSLKISSLHPDDVATYYCQNVLSTPYTFGGGTKLEIKESKYGPPCPPCPAPEAAGGPSVFLFPPKPKDTLMISRTPEVTCVVVDVSQEDPEVQFNWYVDGVEVHNAKTKPREEQFNSTYRVVSVLTVLHQDWLNGKEYKCKVSNKGLPSSIEKTISKAKGQPREPQVYTLPPSQEEMTKNQVSLTCLVKGFYPSDIAVEWESNGQPENNYKTTPPVLDSDGSFFLYSKLTVDKSRWQEGNVFSCSVMHEALHNHYTQKSLSLSLG
B3: 1A3 scFv-Fc (Fc fusion)
chain: QVQLQQPGAELVKPGASVKMSCKASGYTFASYNLHWVKQTPGQGLEWIGLIYPENGDTSYNQKFKGKATLTADKSSSTAYIQLSSLTSEDSAVYFCARGGFDYWGQGTTLTVSQGGGGSGGGGSGGGGSDIQMTQSPASLSASVGETVTITCGASENIYGALNWYQRKQGKSPQLLIYGATNLADGMSSRFSGSGSGRQYSLKISSLHPDDVATYYCQNVLSTPYTFGGGTKLEIKESKYGPPCPPCPAPEAAGGPSVFLFPPKPKDTLMISRTPEVTCVVVDVSQEDPEVQFNWYVDGVEVHNAKTKPREEQFNSTYRVVSVLTVLHQDWLNGKEYKCKVSNKGLPSSIEKTISKAKGQPREPQVYTLPPSQEEMTKNQVSLTCLVKGFYPSDIAVEWESNGQPENNYKTTPPVLDSDGSFFLYSKLTVDKSRWQEGNVFSCSVMHEALHNHYTQKSLSLSLG
B4: 3G10 scFv-Fc (Fc fusion)
chain: EVQLQQSGPELVKPGASVKMSCKASGYTFATYNMHWVKQTTGQGLEWIGAIYPDNGDTFYNRKFKDKATLTADKSSTTAYMQLSSLTSEDSAVYYCARGDFAYWGQGTLVTVSAGGGGSGGGGSGGGGSDVLMTQSPASLSASVGETVTITCGASENIYGALNWYQRKQGKSPQLLIYGATNLADGMSSRFSGSGSGRQYSLKISSLHPDDVATYYCQNVLSTPYTFGGGTKLEMKESKYGPPCPPCPAPEAAGGPSVFLFPPKPKDTLMISRTPEVTCVVVDVSQEDPEVQFNWYVDGVEVHNAKTKPREEQFNSTYRVVSVLTVLHQDWLNGKEYKCKVSNKGLPSSIEKTISKAKGQPREPQVYTLPPSQEEMTKNQVSLTCLVKGFYPSDIAVEWESNGQPENNYKTTPPVLDSDGSFFLYSKLTVDKSRWQEGNVFSCSVMHEALHNHYTQKSLSLSLG
B5: 3D7 scFv-Fc (Fc fusion)
chain: QVQLQQSGAELVKPGASVKMSCKASGYTFSFYNMHWVKRTPGRGLEWIGLIYPDNGDTSYNQKFKGKATLTADTSSSTAYMQLSSLTSEDSAVYYCARGGLDYWGQGTSLTVSSGGGGSGGGGSGGGGSEIVLTQSPASLAVSLGQRATISCKASQSVDYDGDSYMNWYQQKPGQPPKLLIYGISNRFSGVPDRFSGSGSGTDFTLKISTIKPEDLGMYYCLQGTHQPYTFGGGTKLEIKESKYGPPCPPCPAPEAAGGPSVFLFPPKPKDTLMISRTPEVTCVVVDVSQEDPEVQFNWYVDGVEVHNAKTKPREEQFNSTYRVVSVLTVLHQDWLNGKEYKCKVSNKGLPSSIEKTISKAKGQPREPQVYTLPPSQEEMTKNQVSLTCLVKGFYPSDIAVEWESNGQPENNYKTTPPVLDSDGSFFLYSKLTVDKSRWQEGNVFSCSVMHEALHNHYTQKSLSLSLG
B6: 3A12 scFv displayed on phage (scFv)
scFv: EVQLQQSGAELVKPGASVKMSCKASGYTFSFYNVHWVRQTPGQGLEWIGLIYPDNGDTSYNQKFKAKATLTADKSSSAAYMQLSSLTSEDSAVYYCARGGFDYWGQGTSLTVSSGGGGSGGGGSGGGGSDIVMTQSHKFMSTSVGDRVNITCKASQDVSTAVAWYQQKPGQSPKLLIYSASYRYSGVPDRFTGSGSGTDFTFTISSVQAEDLAVYYCQQHYSTPYTFGGGTKLEMK
B7: 3H9 scFv displayed on phage (scFv)
scFv: EIQLQQSGAELVKPGASVKMSCKASGYTFSFYNMHWVKRTPGQGLEWIGLIYPDNGDTSYNQKFKGKATLTADTSSSTAYMQLSSLTSEDSAVYYCARGGLDYWGQGTTLTVSSGGGGSGGGGSGGGGSDIVLTQSPASLSVSVGETVTITCRASENIYSNLAWYQQKQGKSPQLLVYAATNLADGVPSRFSGSGSGTQYSLKINSLQSEDFGSYYCQHFWGTPYTFGGGTKLELK
B8: 3D6 scFv displayed on phage (scFv)
scFv: QVQLQQSGAELVKPGASVKMSCKASGYTFRYYNMHWVKRTPGQGLEWIGLIYPDNGDTSYNQKFKGKATLTADTSSSTAYMQLSSLTSEDSAVYYCARGGLDYWGQGTSLTVSSGGGGSGGGGSGGGGSDIQMTQSPASLSVSVGETVTITCRASENIYSNLAWYQQKQGKSPQLLVYNAKTLADGVPSRFSGSGSGTQYSLKINSLQPEDFGSYYCQHFWSTPFTFGSGTKLELK
B9: 1C10 scFv displayed on phage (scFv)
scFv: B8 scFv with Q132V, V142A, E156G, Y159H, S160N, N161Y, F225Y, S229G, L235M

What follows are binders tested against FGFR2c (acro) (UniProt P21802) (assay: ELISA, antibody 10 µg/mL).
Sequence of FGFR2c (acro) (P21802 22-377): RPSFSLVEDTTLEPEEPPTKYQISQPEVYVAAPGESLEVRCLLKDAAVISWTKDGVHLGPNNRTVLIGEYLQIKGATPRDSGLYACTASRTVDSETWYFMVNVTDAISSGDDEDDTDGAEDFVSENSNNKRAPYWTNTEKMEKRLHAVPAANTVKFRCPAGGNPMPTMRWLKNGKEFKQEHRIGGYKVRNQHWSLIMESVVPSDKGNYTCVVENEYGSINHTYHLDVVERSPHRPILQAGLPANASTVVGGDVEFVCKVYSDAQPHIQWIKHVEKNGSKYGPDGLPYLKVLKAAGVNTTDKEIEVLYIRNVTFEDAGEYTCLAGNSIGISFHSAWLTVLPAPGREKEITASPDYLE

Binder	OD (450 nm) value
B1	0.176
B2	0.199
B3	0.134

Each binder was assayed against T1, FGFR4 (acro) (UniProt P22455) (assay: ELISA, antibody 10 µg/mL).
T1 sequence (looked up): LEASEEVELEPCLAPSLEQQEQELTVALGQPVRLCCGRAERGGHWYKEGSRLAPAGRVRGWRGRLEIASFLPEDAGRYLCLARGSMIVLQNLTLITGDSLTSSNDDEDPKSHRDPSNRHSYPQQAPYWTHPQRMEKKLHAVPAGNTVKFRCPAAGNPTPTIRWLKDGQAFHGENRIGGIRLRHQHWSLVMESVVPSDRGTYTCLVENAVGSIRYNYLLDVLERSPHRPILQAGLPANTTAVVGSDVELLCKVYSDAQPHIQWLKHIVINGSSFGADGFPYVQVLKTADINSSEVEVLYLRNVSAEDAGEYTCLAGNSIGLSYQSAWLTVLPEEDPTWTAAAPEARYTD

Binder	OD (450 nm) value
B1	0.232
B2	0.265
B4	0.175
B5	0.256

Each binder was assayed against FGFR1 (acro) (UniProt P11362) (assay: ELISA, antibody 10 µg/mL).
Sequence of FGFR1 (acro) (P11362 22-376): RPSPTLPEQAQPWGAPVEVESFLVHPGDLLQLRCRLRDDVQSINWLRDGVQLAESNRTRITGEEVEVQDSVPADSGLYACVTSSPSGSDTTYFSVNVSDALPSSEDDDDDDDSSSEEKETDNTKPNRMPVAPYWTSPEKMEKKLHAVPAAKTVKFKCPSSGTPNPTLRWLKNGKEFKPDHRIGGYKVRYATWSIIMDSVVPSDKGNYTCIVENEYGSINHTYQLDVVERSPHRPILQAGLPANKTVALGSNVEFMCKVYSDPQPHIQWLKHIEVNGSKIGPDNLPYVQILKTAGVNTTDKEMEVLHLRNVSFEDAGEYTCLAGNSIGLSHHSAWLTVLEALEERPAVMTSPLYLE

Binder	OD (450 nm) value
B1	0.217
B2	0.19
B4	0.083
B5	0.192
B3	0.143

Each binder was assayed against recombinant mouse FGFR2b (mouse) (UniProt P21803) (assay: ELISA, antibody 1ug/mL).
Sequence of recombinant mouse FGFR2b (mouse) (P21803 22-377): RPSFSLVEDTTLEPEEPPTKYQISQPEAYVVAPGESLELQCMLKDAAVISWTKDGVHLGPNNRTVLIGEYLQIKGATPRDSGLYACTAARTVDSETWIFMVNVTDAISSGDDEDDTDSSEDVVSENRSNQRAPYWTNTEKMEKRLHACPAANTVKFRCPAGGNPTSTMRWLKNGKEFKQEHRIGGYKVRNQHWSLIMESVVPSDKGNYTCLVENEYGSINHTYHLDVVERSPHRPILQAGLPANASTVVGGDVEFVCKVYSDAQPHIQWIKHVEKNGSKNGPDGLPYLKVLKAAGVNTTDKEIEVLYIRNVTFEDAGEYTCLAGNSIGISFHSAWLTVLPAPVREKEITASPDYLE

Binder	OD (450 nm) value
B1	2.76
B2	3.06
B4	3
B5	2.48
B3	1.81

Each binder was assayed against recombinant mouse FGFR2b (mouse) (UniProt P21803) (assay: BLI, antibody on AHC2 sensor).

Binder	Kd	koff	kon
B1	42.2 nM	0.00128 s⁻¹	30400 M⁻¹ s⁻¹
B2	52.7 nM	0.00214 s⁻¹	40500 M⁻¹ s⁻¹
B4	41.9 nM	0.00195 s⁻¹	46600 M⁻¹ s⁻¹
B5	81.7 nM	0.00238 s⁻¹	29100 M⁻¹ s⁻¹
B3	99.8 nM	0.0054 s⁻¹	54200 M⁻¹ s⁻¹

What follows are binders tested against extracellular domain of FGFR2c protein (Example 1) (UniProt P21802) (assay: phage ELISA).
Sequence of extracellular domain of FGFR2c protein (Example 1) (P21802 22-377): as the sequence (P21802 22-377) above

Binder	OD (450 nm) value
B6	0.1
B7	0.073
B8	0.037
B9	0.068

What follows are binders tested against extracellular domain of the FGFR2b protein (NP_075259.4) (UniProt P21802) (assay: phage ELISA).
Sequence of extracellular domain of the FGFR2b protein (NP_075259.4) (P21802 other isoform, or with tags, fused parts or gaps): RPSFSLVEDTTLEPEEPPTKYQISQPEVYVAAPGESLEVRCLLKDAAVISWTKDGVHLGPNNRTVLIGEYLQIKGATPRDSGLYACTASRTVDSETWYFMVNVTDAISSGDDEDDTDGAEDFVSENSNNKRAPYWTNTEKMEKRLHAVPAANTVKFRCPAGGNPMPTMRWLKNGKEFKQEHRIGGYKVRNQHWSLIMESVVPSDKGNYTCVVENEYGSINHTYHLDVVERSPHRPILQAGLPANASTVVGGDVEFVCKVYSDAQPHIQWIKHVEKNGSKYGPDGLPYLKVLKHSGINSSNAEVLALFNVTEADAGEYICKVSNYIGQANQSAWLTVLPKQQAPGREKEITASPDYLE

Binder	OD (450 nm) value
B6	2.41
B7	2.22
B8	1.92
B9	2.55
